We go through 16 sequences from the nanobody polyreactivity screen of Harvey et al. (2022).

This data set can be described thus: yeast display, Sf9 membrane polyspecificity reagent, FACS + sequencing; frameworks hold sequencing errors. A digest of the protocol:
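Polyreactivity labels are assigned by the sorting gate from which each nanobody was recovered. The gates were low and high (top ~1%), set on anti-HA fluorescence for expression and streptavidin fluorescence for reagent binding. Before sorting, galactose-induced (36–48 hours) yeast display cells were stained for 1 hour at 4 °C with 10% biotinylated, detergent-solubilized Sf9 membrane reagent.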
For the sequence “QVLLVESGGGLVQAGGSLRLSCAASGSIFGQYTMGWYRQAPGKERELVAAINSSGDSTFYADSVKGRFTISRDNAKNTVYLQMNSLKPEDTAVYYCAADPYRYYFRAYGWHREGYYWGQGTQVTVSS”, the “polyreactivity (PSR sort gate)” value is on record as “low polyreactivity”. For “QVLLVESGGGLVQAGGSLRLSCAASGSIFYGYPMGWYRQAPGKERELVADIRSSGGSTYYADSVKGRFTISRDNAMNTVYLQMNSLKPEDTAVYYCAADSQELHQNSDYWGQGTQVTVSS”, the “polyreactivity (PSR sort gate)” value is listed as “low polyreactivity”. For the sequence “QVLLVESGGGLVQAGGSLRLSCAASGSNFYRNAMGWYRQAPGKERDFVAAISRSTGRTFYADSVKGRFTISRDNAKNTVYLQMKSLQPEDTAVYYCDAAAKAGTTPTRSYWRHDSWGQGTQVSVSS”, the “polyreactivity (PSR sort gate)” value is “high polyreactivity”.

As for “QVLLVESGGGLVQAGGSLRLSCAASGSTFLRYTMGWYRQAPGKERELVAAINYGGGSTYYADSVKGRFTISRDNAKNTVYLQMNSLKPEDTAVYYCAAGFFRSAHGGKFYYWGQGTQVTVSS”, the “polyreactivity (PSR sort gate)” value was “high polyreactivity”.

With “QVLLVESGGGLVQAGGSLRLSCAASGSTFPLYAMGWYRQAPGTERELVAAITSGGGNTYYADSVMGRFTISRDKAQNTVYLQMNSLKPEDTAVYYCAAVGGYKTYYSYEYDYWGQGTQVTVSS”, the “polyreactivity (PSR sort gate)” value was “low polyreactivity”. The entry for “QVLLVESGGGLVQAGGSLRLSCAASGSTFVVNTMRWYRLAPGKERELVAAISTGSSTYADSVKGRFTISRDNAKKTVYLQMNSLKPEDTAVYYCNTAFPGKYDYWGQGTQVTVSS” is “low polyreactivity”; for “QVLLVESGGGLVQAGGSLRLSCASSGRILGYYAKGWYRQAPGKERELVAGITYSAGRTYYADSVKGRFTISRDNSKNTVYLQINRQTPEDTAVYYCAKALVRSGSTRGTPGYSYWGQGTQVTVSS” it is “high polyreactivity”.

As to “QVLLVESGGGLVQAGGSLRVSCAASGLIFSRYTMGGYRQAPGKERELVAAISKTGSSTYYAVSVKGRFTISRDNAKNTVYLQMKSLKPEDTAVYYCATTPTGRKKGDYWGQGTQVTVSS”, the “polyreactivity (PSR sort gate)” value is given as “high polyreactivity”.

As for “QVLLVESGGGLVQEGGSLRLSCSASGFTFDSNAMGWYRQAPGKERELVAAISTGGSTYYADSVKGRFTISRDNAKNTVYLQMNSLKPEDNAVYYCAREPPYPDTWYGYWGQGSQVTVSS”, the “polyreactivity (PSR sort gate)” value is listed as “low polyreactivity”. The result for “QVLLVESGGGVVQAGGSLRLSCASSGFTYGSYAMGWYRQAPGKERELVAGITRSSGSTYYADSVKGRFTISRDNAKITDYLQMNSLKPEDTAVYYCRQFSVWGYDYWGQGTKVTVSS” reads “high polyreactivity”; that for “QVLLVESRGGLVQAGGSLRLSCAASGGTFSYYAMGWYRQAPAKERELVAAISASGGSTYYADSVKGRFTISRDNAMNTVYLQRNSLKPEDTAVYYCNARYPYYFYAGNYWGQGTQVTVSS”, “low polyreactivity”. With “QVLVGESGGGLVQAGGSLRLSCAASGSTFSNYAMGWYRQAPGTERELVAVSTRGASTYYADSVKGRFTISRDNAKNTVYLQMNTLKPEDTAVYYCAASYWRYRVVHSPYRYYYWGQGTQVNVSS”, the “polyreactivity (PSR sort gate)” value is “high polyreactivity”. As to “QVMLVESGGGLVQAGGSLRLSCAASGSTFEYYAMGWYRQAPGKERELVATISIDGRTNYADSVKGRFTISRDNAKNTVYLQMNSLNPEDTAVYYCGKRVVVWYFGTGDYWGQGTQVTVSS”, the “polyreactivity (PSR sort gate)” value was “low polyreactivity”.

For “QVNLVESGGGLVQAGGSLRLRCAASGSIYISYAMGWYRQAPGKERELVATIRSSGGRTHYSDSVKGRFTISRDNAKNTVYLQMNSLKPEDTPVYYCHYGVYQYPQDYDYWGEGTQVTVSS”, the “polyreactivity (PSR sort gate)” value is “low polyreactivity”. For the sequence “QVPLVESGGGLVHAVGSLRLSCAASGSIFYPYAMGWNRKAPWKERELVARITSGGSTHYADSVKGRFTISRDNDNHNVYLHMNSLKPEDTAVYYFNADYWFVEYDYWGQGTQVTVSS”, the “polyreactivity (PSR sort gate)” value was “low polyreactivity”. “QVPLVESGGGLVQAGGILRLSCAASGRIFLPYAMGWYRQAPGQERELVAAITSSDGSTHYADSVKGRFTISRDNAQNTVYLQMNSLKPEDTAVYYCNAARATYYYYLDDYWGQGTQVTVSS”: the “polyreactivity (PSR sort gate)” value is listed as “low polyreactivity”.
